Laboratory results as given in patent US8048999B2, “Nuclear reprogramming factor” (Kyoto University, priority 2005, dated 2011).

B1: bFGF: cytokine permanently expressed by STO feeder cells transduced with pMX expression vector (protein, UniProt P15655 10-154, looked up)
Fibroblast growth factor 2: PALPEDGGAAFPPGHFKDPKRLYCKNGGFFLRIHPDGRVDGVREKSDPHVKLQLQAEERGVVSIKGVCANRYLAMKEDGRLLASKCVTEECFFFERLESNNYNTYRSRKYSSWYVALKRTGQYKLGSKTGPGQKAILFLPMSAKS
B2: SCF: cytokine permanently expressed by STO feeder cells transduced with pMX expression vector (protein, UniProt P20826 26-190, looked up)
Soluble KIT ligand: KEICGNPVTDNVKDITKLVANLPNDYMITLNYVAGMDVLPSHCWLRDMVIQLSLSLTTLLDKFSNISEGLSNYSIIDKLGKIVDDLVLCMEENAPKNIKESPKRPETRSFTPEEFFSIFNRSIDAFKDFMVASDTSDCVLSSTLGPEKDSRVSVTKPFMLPPVAA

Legend:
[1] = system: Nanog-EGFP-IRES-Puro mouse MEFs; assay: iPS cell establishment with Nanog-GFP reporter, puromycin selection; format: cell-based; conditions: 4 factors; PD98059 final concentration 25 μM continuously added from the next day of transfection
From the text: Studies were made as to whether iPS cells could be established with a reporter other than Fbx15-βgeo. […] artificial chromosome (BAC) containing the Nanog gene in the center was isolated, and then the GFP gene and the puromycin resistance gene were knocked in by recombination in E. coli (FIG. 12A). Subsequently, the above modified BAC was introduced into ES cells to confirm that the cells became GFP-positive in an undifferentiated state specific manner (data not shown). Then, these ES cells were transplanted in mouse blastocysts to create transgenic mice via chimeric mice. In these mice, GFP-positive cells were specifically observed in inner cell masses of the blastocysts or gonads of embryos at 13.5 days after fertilization (FIG. 12B). The gonads were removed from the embryos at 13.5 days after fertilization (hybrid of DBA, 129, and C57BL/6 mice), and MEFs were isolated. The isolated MEFs were confirmed to be GFP-negative (FIG. 13) by flow cytometry. These MEFs were retrovirally transduced with the 4 factors and subjected to puromycin selection, and as a result, a plural number of resistant colonies were obtained. Only about 10 to 20% of the colonies were GFP-positive. When the GFP-positive colonies were passaged, they gave morphology (FIG. 14) and proliferation (FIG. 15) similar to those of ES cells. […]

[2] = system: MEFs derived from the Fbx15^βgeo/βgeo mouse; assay: Effect of cytokine-producing STO feeder cells on iPS cell establishment (G418 selection); format: cell-based; conditions: 3 factors other than c-Myc transduced
From the text: An effect of cytokine on iPS cell establishment was investigated. Expression vector (pMX retroviral vector) for basic fibroblast growth factor (bFGF) or stem cell factor (SCF) was transduced into feeder cells (STO cells) to establish cells permanently expressing the cytokines. […] As a result, the number of formed colonies increased 20 times or higher on the STO cells producing bFGF (FIG. 11) or SCF (data not shown), as compared with the culture on normal STO cells.

Row | Molecule | percentage of GFP-positive colonies [1] [%] | colony formation with the 3 factors other than c-Myc on cytokine-producing STO cells [2]
1 | COc1cccc(-c2cc(=O)c3ccccc3o2)c1N [PD98059] | 45 | 
2 | B1 |  | colony formation was observed
3 | B2 |  | colony formation was observed
